Assay results taken from the supplement of paper PMC9112550, “Optimization of the antimicrobial peptide Bac7 by deep mutational scanning” (BMC Biology, 2022).

test system: Escherichia coli TOP10; assay: shrunken log2 fold change of peptide-encoding DNA abundance (4.5 h post-induction vs induction); higher = less antimicrobial activity (less host growth inhibition); details: time post-induction: 4.5 h; library: site-saturation at positions 5, 18, 19, 20
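Also: peptides expressed intracellularly from a pBAD plasmid library in pooled LB shake-flask culture, induced with 0.3% L-arabinose, DNA abundance read by NGS, three biological replicates, DESeq2 with apeglm shrinkage.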

Row | Sequence | shrunken log2 fold change
1 | RRIRHRPPRLPRPRPRPFQKPRP | 0.00797
2 | RRIRHRPPRLPRPRPRPFQNPRP | -0.195
3 | RRIRHRPPRLPRPRPRPFSKPRP | 0.0242
4 | RRIRHRPPRLPRPRPRPFTRPRP | -0.132
5 | RRIRHRPPRLPRPRPRPFVFPRP | -0.0736
6 | RRIRHRPPRLPRPRPRPFVPPRP | -0.455
7 | RRIRHRPPRLPRPRPRPFWEPRP | -0.218
8 | RRIRHRPPRLPRPRPRPFWMPRP | -0.0444
9 | RRIRHRPPRLPRPRPRPFWPPRP | 0.131
10 | RRIRHRPPRLPRPRPRPFYHPRP | -0.126
11 | RRIRHRPPRLPRPRPRPGAYPRP | -0.266
12 | RRIRHRPPRLPRPRPRPGCKPRP | 0.229
13 | RRIRHRPPRLPRPRPRPGDMPRP | -0.157
14 | RRIRHRPPRLPRPRPRPGGGPRP | 0.684
15 | RRIRHRPPRLPRPRPRPGHAPRP | -0.0876
16 | RRIRHRPPRLPRPRPRPGIFPRP | -0.24
17 | RRIRHRPPRLPRPRPRPGIIPRP | -0.0698
18 | RRIRHRPPRLPRPRPRPGKLPRP | 0.169
19 | RRIRHRPPRLPRPRPRPGKNPRP | -0.0444
20 | RRIRHRPPRLPRPRPRPGKYPRP | -0.0822
21 | RRIRHRPPRLPRPRPRPGLKPRP | 0.182
22 | RRIRHRPPRLPRPRPRPGMMPRP | 0.00873
23 | RRIRHRPPRLPRPRPRPGMRPRP | 0.163
24 | RRIRHRPPRLPRPRPRPGNLPRP | -0.0177
25 | RRIRHRPPRLPRPRPRPGNTPRP | -0.319

Row | Sequence | shrunken log2 fold change
26 | RRIRHRPPRLPRPRPRPGPQPRP | 0.0368
27 | RRIRHRPPRLPRPRPRPGPVPRP | 0.26
28 | RRIRHRPPRLPRPRPRPGQFPRP | -0.0207
29 | RRIRHRPPRLPRPRPRPGRFPRP | 0.314
30 | RRIRHRPPRLPRPRPRPGRTPRP | 0.208
31 | RRIRHRPPRLPRPRPRPGSFPRP | -0.176
32 | RRIRHRPPRLPRPRPRPGTQPRP | -0.128
33 | RRIRHRPPRLPRPRPRPGTVPRP | -0.139
34 | RRIRHRPPRLPRPRPRPGVEPRP | 0.0675
35 | RRIRHRPPRLPRPRPRPGVGPRP | 0.146
36 | RRIRHRPPRLPRPRPRPGVQPRP | 0.00489
37 | RRIRHRPPRLPRPRPRPGYAPRP | -0.163
38 | RRIRHRPPRLPRPRPRPHCPPRP | -0.207
39 | RRIRHRPPRLPRPRPRPHDIPRP | 0.0564
40 | RRIRHRPPRLPRPRPRPHHDPRP | -0.166
41 | RRIRHRPPRLPRPRPRPHHMPRP | -0.324
42 | RRIRHRPPRLPRPRPRPHIDPRP | -0.241
43 | RRIRHRPPRLPRPRPRPHIEPRP | 0.032
44 | RRIRHRPPRLPRPRPRPHILPRP | -0.084
45 | RRIRHRPPRLPRPRPRPHKYPRP | -0.242
46 | RRIRHRPPRLPRPRPRPHLLPRP | -0.286
47 | RRIRHRPPRLPRPRPRPHMNPRP | -0.491
48 | RRIRHRPPRLPRPRPRPHMPPRP | -0.358
49 | RRIRHRPPRLPRPRPRPHNEPRP | -0.458
50 | RRIRHRPPRLPRPRPRPHNTPRP | -0.709

Row | Sequence | shrunken log2 fold change
51 | RRIRHRPPRLPRPRPRPHPFPRP | -0.3
52 | RRIRHRPPRLPRPRPRPHPSPRP | 0.0305
53 | RRIRHRPPRLPRPRPRPHQEPRP | -0.0212
54 | RRIRHRPPRLPRPRPRPHQHPRP | -0.526
55 | RRIRHRPPRLPRPRPRPHSLPRP | -0.00992
56 | RRIRHRPPRLPRPRPRPHTIPRP | -0.0571
57 | RRIRHRPPRLPRPRPRPHVFPRP | -0.0684
58 | RRIRHRPPRLPRPRPRPHVIPRP | -0.302
59 | RRIRHRPPRLPRPRPRPHVRPRP | -0.0157
60 | RRIRHRPPRLPRPRPRPHWFPRP | -0.198
61 | RRIRHRPPRLPRPRPRPHYRPRP | -0.0219
62 | RRIRHRPPRLPRPRPRPIAHPRP | 0.0481
63 | RRIRHRPPRLPRPRPRPICRPRP | 0.0125
64 | RRIRHRPPRLPRPRPRPIEAPRP | -0.131
65 | RRIRHRPPRLPRPRPRPIELPRP | -0.0301
66 | RRIRHRPPRLPRPRPRPIEMPRP | -0.00281
67 | RRIRHRPPRLPRPRPRPIFCPRP | -0.184
68 | RRIRHRPPRLPRPRPRPIGKPRP | 0.0218
69 | RRIRHRPPRLPRPRPRPIHDPRP | -1.81
70 | RRIRHRPPRLPRPRPRPIHRPRP | -0.147
71 | RRIRHRPPRLPRPRPRPIHSPRP | 0.0202
72 | RRIRHRPPRLPRPRPRPIIYPRP | -0.295
73 | RRIRHRPPRLPRPRPRPIKSPRP | -0.0206
74 | RRIRHRPPRLPRPRPRPILFPRP | -0.148
75 | RRIRHRPPRLPRPRPRPIMNPRP | -1.05
